B1: eIF2Bγ, FLAG-tagged (γ-subunit of yeast eIF2B) (natural protein, S. cerevisiae, UniProt P09032 1-578, looked up)
chain: MSIQAFVFCGKGSNLAPFTQPDFPFQTQNKDSTAATSGDKLNELVNSALDSTVINEFMQHSTRLPKALLPIGNRPMIEYVLDWCDQADFKEISVVAPVDEIELIESGLTSFLSLRKQQFELIYKALSNSNHSHHLQDPKKINFIPSKANSTGESLQKELLPRINGDFVILPCDFVTDIPPQVLVDQFRNRDDNNLAMTIYYKNSLDSSIDKKQQQKQKQQQFFTVYSENEDSERQPILLDVYSQRDVTKTKYLQIRSHLLWNYPNLTVSTKLLNSFIYFCSFELCQLLKLGPQSMSRQASFKDPFTGNQQQQNPPTTDDDEDRNHDDDDDYKPSATSIQPTYFKKKNDLILDPINCNKSLSKVFRDLSRRSWQHSKPREPIGIFILPNETLFIRANNLNAYMDANRFVLKIKSQTMFTKNIQIQSAAIGADAIVDPKCQISAHSNVKMSVLGTQANIGSRCRVAGSLLFPGVHLGDEVILENCIIGPMAKIGSKCKLSNCYIEGHYVVEPKNNFKGETLANVYLDEDEEDELIYDDSVIAGESEIAEETDSDDRSDEDSDDSEYTDEYEYEDDGLFER
notes: eIF2B gamma subunit (GCD1), S. cerevisiae; Bait of all eIF2B complex purifications; also called GCD1-FLAG2-His6; source: S. cerevisiae strains overexpressing eIF2B subunits, purified (anti-FLAG resin, FLAG peptide elution); not shown: FLAG2, C-terminal, kept

Legend:
[1] = target: T1, eIF2Bγ in the eIF2Bγε core complex (γ2ε2) (Saccharomyces cerevisiae, UniProt P09032); assay: photo-cross-linking and native nano-electrospray MS; assay type: binding; details: 10 mM 6-Thio-GTP; UV 365 nm 5 min on ice; 500 mM ammonium acetate; covalent (photo-cross-link); adduct on γ-subunit
T1 construct: gene GCD1; γε core co-overexpressed in yeast, γ-subunit C-terminally FLAG-tagged (GCD1-FLAG2-His6), anti-FLAG purified; GTP adduct seen on dissociated γ; with Translation initiation factor eIF2B subunit epsilon
T1 sequence (P09032 1-578): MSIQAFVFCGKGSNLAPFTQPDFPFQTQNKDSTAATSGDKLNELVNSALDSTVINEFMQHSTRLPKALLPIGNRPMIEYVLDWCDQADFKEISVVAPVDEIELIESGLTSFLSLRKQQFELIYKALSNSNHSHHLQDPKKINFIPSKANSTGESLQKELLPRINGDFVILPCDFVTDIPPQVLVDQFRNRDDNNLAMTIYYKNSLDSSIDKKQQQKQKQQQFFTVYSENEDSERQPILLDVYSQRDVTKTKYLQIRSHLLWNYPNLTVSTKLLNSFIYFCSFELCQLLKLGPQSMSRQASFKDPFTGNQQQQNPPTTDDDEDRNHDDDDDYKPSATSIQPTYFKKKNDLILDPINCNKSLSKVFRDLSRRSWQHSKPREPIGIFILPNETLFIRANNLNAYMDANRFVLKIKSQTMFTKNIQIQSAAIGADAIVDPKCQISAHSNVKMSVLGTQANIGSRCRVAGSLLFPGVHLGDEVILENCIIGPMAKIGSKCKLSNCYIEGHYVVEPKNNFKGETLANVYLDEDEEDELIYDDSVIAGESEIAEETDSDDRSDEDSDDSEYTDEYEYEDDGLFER
T1 sequence (P32501 1-712 partner): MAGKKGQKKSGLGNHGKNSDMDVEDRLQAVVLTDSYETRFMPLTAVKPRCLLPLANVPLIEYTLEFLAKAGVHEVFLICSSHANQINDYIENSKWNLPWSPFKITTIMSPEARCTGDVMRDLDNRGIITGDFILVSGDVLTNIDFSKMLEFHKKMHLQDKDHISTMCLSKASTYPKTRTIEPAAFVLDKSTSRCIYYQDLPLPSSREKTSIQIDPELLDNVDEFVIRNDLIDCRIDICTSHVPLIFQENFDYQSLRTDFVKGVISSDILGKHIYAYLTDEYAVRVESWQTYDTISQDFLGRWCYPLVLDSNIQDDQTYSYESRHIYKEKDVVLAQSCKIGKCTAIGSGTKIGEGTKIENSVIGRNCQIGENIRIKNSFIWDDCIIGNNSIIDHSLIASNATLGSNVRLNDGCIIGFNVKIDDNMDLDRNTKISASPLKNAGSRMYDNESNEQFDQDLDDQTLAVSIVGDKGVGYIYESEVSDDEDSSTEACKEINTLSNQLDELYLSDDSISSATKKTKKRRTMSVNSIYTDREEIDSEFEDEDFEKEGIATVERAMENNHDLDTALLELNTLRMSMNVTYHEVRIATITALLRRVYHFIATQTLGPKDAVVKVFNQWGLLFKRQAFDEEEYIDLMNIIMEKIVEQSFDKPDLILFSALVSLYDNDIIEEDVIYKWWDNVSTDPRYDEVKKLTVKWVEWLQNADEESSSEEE

[2] = target: yeast four subunit complex lacking the α-subunit, eIF2Bβδγε (octamer) (S. cerevisiae) (UniProt P32502); assay: native MS; FLAG-purified four-subunit eIF2Bβδγε in ammonium acetate, without and with 10% acetonitrile; octamer = two copies of each of four subunits
[3] = target: T2, eIF2Bε (ε-subunit of yeast eIF2B, untagged) (S. cerevisiae, UniProt P32501 1-712); assay: as above; details: both partners purified
T2 construct: eIF2B epsilon subunit (GCD6), S. cerevisiae; Subunit of the purified eIF2B complexes, written alone for the subunit pairs; also called eIF2B ε-subunit; ε/GCD6
T2 sequence (looked up): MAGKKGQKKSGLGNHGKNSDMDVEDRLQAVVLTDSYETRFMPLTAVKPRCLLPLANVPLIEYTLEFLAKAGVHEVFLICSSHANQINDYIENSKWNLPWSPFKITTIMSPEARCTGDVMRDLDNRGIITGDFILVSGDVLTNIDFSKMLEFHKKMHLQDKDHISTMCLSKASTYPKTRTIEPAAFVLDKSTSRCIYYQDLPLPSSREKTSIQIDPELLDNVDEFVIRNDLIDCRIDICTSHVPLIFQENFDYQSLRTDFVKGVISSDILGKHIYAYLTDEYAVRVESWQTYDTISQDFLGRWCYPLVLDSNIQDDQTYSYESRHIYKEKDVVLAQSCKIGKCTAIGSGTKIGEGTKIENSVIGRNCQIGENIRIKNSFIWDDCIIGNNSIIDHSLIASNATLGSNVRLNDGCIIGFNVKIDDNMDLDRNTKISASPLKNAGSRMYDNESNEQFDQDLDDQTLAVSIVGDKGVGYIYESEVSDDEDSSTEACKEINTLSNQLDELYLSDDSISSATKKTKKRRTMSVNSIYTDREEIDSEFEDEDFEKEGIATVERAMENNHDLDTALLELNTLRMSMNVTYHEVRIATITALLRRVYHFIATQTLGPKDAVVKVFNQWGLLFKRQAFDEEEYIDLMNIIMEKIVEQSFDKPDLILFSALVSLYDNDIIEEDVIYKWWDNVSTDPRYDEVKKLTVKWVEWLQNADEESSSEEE

[4] = target: T3, eIF2Bδ (δ-subunit of yeast eIF2B) (S. cerevisiae, UniProt P12754 1-651); assay: as above; details: both partners purified
T3 construct: eIF2B delta subunit (GCD2), S. cerevisiae; Subunit of the purified eIF2B complexes, written alone for the subunit pairs; also called eIF2B δ-subunit; δ/Gcd2
T3 sequence (looked up): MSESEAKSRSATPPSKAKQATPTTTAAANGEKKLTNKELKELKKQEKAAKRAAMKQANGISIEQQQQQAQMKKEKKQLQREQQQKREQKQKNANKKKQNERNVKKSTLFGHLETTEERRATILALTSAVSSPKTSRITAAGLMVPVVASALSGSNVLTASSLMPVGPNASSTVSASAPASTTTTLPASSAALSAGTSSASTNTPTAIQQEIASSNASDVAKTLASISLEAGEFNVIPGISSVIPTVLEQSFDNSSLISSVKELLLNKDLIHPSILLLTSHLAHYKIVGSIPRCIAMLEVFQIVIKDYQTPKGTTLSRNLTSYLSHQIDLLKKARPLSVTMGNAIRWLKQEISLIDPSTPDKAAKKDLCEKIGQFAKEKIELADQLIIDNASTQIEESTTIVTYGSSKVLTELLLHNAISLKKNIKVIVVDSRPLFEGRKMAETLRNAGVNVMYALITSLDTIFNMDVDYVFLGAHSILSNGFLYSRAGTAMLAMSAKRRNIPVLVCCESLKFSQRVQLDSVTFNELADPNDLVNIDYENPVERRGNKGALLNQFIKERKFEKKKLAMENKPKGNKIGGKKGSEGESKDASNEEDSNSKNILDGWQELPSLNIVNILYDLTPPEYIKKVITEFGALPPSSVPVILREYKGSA

[5] = target: the molecule itself; assay: as above
[6] = target: T4, eIF2Bα (α-subunit of yeast eIF2B) (S. cerevisiae, UniProt P14741 1-305); assay: cross-linking; BS3-d0/d4 (1:1) added to purified complexes (eIF2:eIF2B, four-subunit eIF2B, eIF2Bγε core), 30 min at 26 °C, trypsin digest, nanoLC-MS/MS, MassMatrix search; the text does not tell which cross-link came from which complex; details: both partners purified
T4 construct: eIF2B alpha subunit (GCN3), S. cerevisiae; Subunit of the purified eIF2B complex, written alone for the subunit pairs; also called eIF2B α-subunit; GCN3
T4 sequence (looked up): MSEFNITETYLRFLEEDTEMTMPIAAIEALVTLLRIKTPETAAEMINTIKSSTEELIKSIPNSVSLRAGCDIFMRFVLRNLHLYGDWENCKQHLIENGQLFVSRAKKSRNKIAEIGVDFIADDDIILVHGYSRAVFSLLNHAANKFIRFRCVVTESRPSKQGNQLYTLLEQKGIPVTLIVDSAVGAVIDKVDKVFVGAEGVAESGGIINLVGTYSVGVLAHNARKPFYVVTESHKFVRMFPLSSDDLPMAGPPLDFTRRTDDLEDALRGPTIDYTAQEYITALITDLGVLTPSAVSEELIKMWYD

[7] = target: B1; assay: as above; details: both partners purified
[8] = target: T3, eIF2Bδ (δ-subunit of yeast eIF2B); assay: as above; details: both partners purified
[9] = target: eIF2α phosphorylated at Ser51 (subunit of phosphorylated eIF2) (S. cerevisiae) (UniProt P20459); assay: label-free quantitative proteomics (iBAQ) of the purified complex; eIF2-eIF2B complex purified after phosphorylation of eIF2, trypsin digest, nanoLC-MS/MS, iBAQ intensities compared; eIF2B subunits relative to FLAG-tagged γ (set to 1), eIF2 subunits relative to α

**Q.** Which “photo-cross-linking and native nano-electrospray MS” value [1] does the source give for Nc1nc(=S)c2ncn([C@@H]3O[C@H](COP(=O)(O)OP(=O)(O)OP(=O)(O)O)[C@@H](O)[C@H]3O)c2[nH]1 [6-Thio-GTP] here?
**A.** After incubation with 6-Thio-GTP and ultraviolet irradiation, the intensity of the GTP-bound population

**Q.** “yeast four subunit complex lacking the α-subunit, eIF2Bβδγε (octamer), P32502 1-381; P12754 1-651; P09032 1-578; P32501 1-712” was tested. Which stoichiometry N [2] did it give?
**A.** 8

**Q.** Does B1 bind [3]?
**A.** binds

**Q.** Does B1 bind [4]?
**A.** binds

B2: eIF2Bγε core complex (complex, S. cerevisiae)
chain 1: MSIQAFVFCGKGSNLAPFTQPDFPFQTQNKDSTAATSGDKLNELVNSALDSTVINEFMQHSTRLPKALLPIGNRPMIEYVLDWCDQADFKEISVVAPVDEIELIESGLTSFLSLRKQQFELIYKALSNSNHSHHLQDPKKINFIPSKANSTGESLQKELLPRINGDFVILPCDFVTDIPPQVLVDQFRNRDDNNLAMTIYYKNSLDSSIDKKQQQKQKQQQFFTVYSENEDSERQPILLDVYSQRDVTKTKYLQIRSHLLWNYPNLTVSTKLLNSFIYFCSFELCQLLKLGPQSMSRQASFKDPFTGNQQQQNPPTTDDDEDRNHDDDDDYKPSATSIQPTYFKKKNDLILDPINCNKSLSKVFRDLSRRSWQHSKPREPIGIFILPNETLFIRANNLNAYMDANRFVLKIKSQTMFTKNIQIQSAAIGADAIVDPKCQISAHSNVKMSVLGTQANIGSRCRVAGSLLFPGVHLGDEVILENCIIGPMAKIGSKCKLSNCYIEGHYVVEPKNNFKGETLANVYLDEDEEDELIYDDSVIAGESEIAEETDSDDRSDEDSDDSEYTDEYEYEDDGLFER
chain 2: MAGKKGQKKSGLGNHGKNSDMDVEDRLQAVVLTDSYETRFMPLTAVKPRCLLPLANVPLIEYTLEFLAKAGVHEVFLICSSHANQINDYIENSKWNLPWSPFKITTIMSPEARCTGDVMRDLDNRGIITGDFILVSGDVLTNIDFSKMLEFHKKMHLQDKDHISTMCLSKASTYPKTRTIEPAAFVLDKSTSRCIYYQDLPLPSSREKTSIQIDPELLDNVDEFVIRNDLIDCRIDICTSHVPLIFQENFDYQSLRTDFVKGVISSDILGKHIYAYLTDEYAVRVESWQTYDTISQDFLGRWCYPLVLDSNIQDDQTYSYESRHIYKEKDVVLAQSCKIGKCTAIGSGTKIGEGTKIENSVIGRNCQIGENIRIKNSFIWDDCIIGNNSIIDHSLIASNATLGSNVRLNDGCIIGFNVKIDDNMDLDRNTKISASPLKNAGSRMYDNESNEQFDQDLDDQTLAVSIVGDKGVGYIYESEVSDDEDSSTEACKEINTLSNQLDELYLSDDSISSATKKTKKRRTMSVNSIYTDREEIDSEFEDEDFEKEGIATVERAMENNHDLDTALLELNTLRMSMNVTYHEVRIATITALLRRVYHFIATQTLGPKDAVVKVFNQWGLLFKRQAFDEEEYIDLMNIIMEKIVEQSFDKPDLILFSALVSLYDNDIIEEDVIYKWWDNVSTDPRYDEVKKLTVKWVEWLQNADEESSSEEE
notes: eIF2B gamma subunit (GCD1), S. cerevisiae; eIF2B epsilon subunit (GCD6), S. cerevisiae; Seen as γε dimer (predominant) and γ2ε2 tetramer; the self row stands for two γε dimers joined in the tetramer; also called γε dimer; γ2ε2 tetramer; source: S. cerevisiae, purified by the FLAG-tagged γ-subunit (anti-FLAG resin); also formed from eIF2Bβδγε on adding 10% acetonitrile; not shown: FLAG2, …
**Q.** How did the “stoichiometry N” value [5] turn out when B2 was run?
**A.** 4

B3: eIF2β (β-subunit of yeast eIF2) (natural protein, S. cerevisiae, UniProt P09064 1-285, looked up)
chain: MSSDLAAELGFDPALKKKKKTKKVIPDDFDAAVNGKENGSGDDLFAGLKKKKKKSKSVSADAEAEKEPTDDIAEALGELSLKKKKKKTKDSSVDAFEKELAKAGLDNVDAESKEGTPSANSSIQQEVGLPYSELLSRFFNILRTNNPELAGDRSGPKFRIPPPVCLRDGKKTIFSNIQDIAEKLHRSPEHLIQYLFAELGTSGSVDGQKRLVIKGKFQSKQMENVLRRYILEYVTCKTCKSINTELKREQSNRLFFMVCKSCGSTRSVSSIKTGFQATVGKRRRM
notes: eIF2 beta subunit (SUI3), S. cerevisiae; Subunit of the purified eIF2 complex, written alone for the subunit pairs; also called eIF2 β-subunit; SUI3
**Q.** What does the source list for B3?
**A.** binding result [6]: binds; binding result [7]: binds; binding result [8]: binds; stoichiometry N [9]: 1.08
